Reference: the supplement of paper PMC7877785
± gives the uncertainty stated by the source.

Experiment: self-splicing fitness, log relative to wild type (ln ratio); higher = more splicing; Tetrahymena group I intron in knt gene, E. coli kanamycin selection, DiMSum; sequences stand for … in CUCUCU…GGAGGGAAAAGUUAUCAGGCAUGCACCUGGUAGCUAGUCUUUAAACCAAUAGAUUGCAUCGGUUUAAAAGGCAAGACCGUCAAAUUGCGGGAAAGGGGUCAACAGCCGUUCAGUACCAAGUCUCAGGGGAAACUUUGAGAUGGCCUUGCAAAGGGUAUGGUAAUAAGCUGACGGACAUGGUCCUAACCACGCAGCCAAGUCCUAAGUCAACAGAUCUUCUGUUGAUAUGGAUGCAGUUCACAGACUAAAUGUCGGUCGGGGAAGAUGUAUUCUUCUCAUAAGAUAUAGUCGGACCUCUCCUUAAUGGGAGCUAGCGGAUGAAGUGAUGCAACACUGGAGCCGCUGGGAACUAAUUUGUAUGCGAAAGUAUAUUGAUUAGUUUUGGAGUACUCGUGGUCG
How it was run: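 DiMSum derived fitness as the error-weighted combination of fold changes across replicates, kanamycin versus no kanamycin, normalised to wild type. E. coli BL21(DE3) held the library, which randomised all eight P1ex-region intron nucleotides within the knt kanamycin-resistance gene on pET-22b(+). Six replicate transformations grew overnight at 37°C or 30°C on LB agar with or without 25 μg/mL kanamycin, also containing 100 μg/mL carbenicillin, 50 μM IPTG and 0.2% rhamnose, and pooled colonies were amplicon-sequenced on an Illumina HiSeq 2500.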

Row | Sequence | self-splicing fitness (ln) (37 °C) | self-splicing fitness (ln) (30 °C)
1 | CCGGAGCAAUAUUACGCUAU | -2.1 ± 0.2 | 
2 | AAUGAGCAAUAUUACGGCCA | 0.411 ± 0.39 | 
3 | GGGAAGCAAUAUUACGACAC | 0.0269 ± 0.38 | -0.539 ± 0.25
4 | AGAUAGCAAUAUUACGCCCU | 0.138 ± 0.21 | -0.337 ± 0.19
5 | UUUCAGCAAUAUUACGCCGA | -0.923 ± 0.44 | 
6 | UUCGAGCAAUAUUACGUAGU | -0.98 ± 0.25 | -2.91 ± 0.29
7 | AAGUAGCAAUAUUACGACGA | 0.0374 ± 0.11 | 0.0522 ± 0.098
8 | CGAUAGCAAUAUUACGAGCC | -2.61 ± 0.44 | -2.23 ± 0.28
9 | UACGAGCAAUAUUACGCUUC | -1.32 ± 0.3 | -2.53 ± 0.25
10 | UCUAAGCAAUAUUACGUAGA | -0.771 ± 0.15 | -1.2 ± 0.098
11 | UUGAAGCAAUAUUACGUACG | 0.427 ± 0.074 | -0.166 ± 0.053
12 | CUAUAGCAAUAUUACGUAUA | -2.56 ± 0.37 | -3.27 ± 0.42
13 | UAGUAGCAAUAUUACGGCCC | -1.92 ± 0.37 | -2.09 ± 0.17
14 | UCCUAGCAAUAUUACGUCAG | -2.41 ± 0.37 | -3.38 ± 0.29
15 | CAACAGCAAUAUUACGCAAC | -2.53 ± 0.33 | -3.4 ± 0.23
16 | CGGCAGCAAUAUUACGUUUA | -1.53 ± 0.13 | -2.06 ± 0.12
17 | ACCUAGCAAUAUUACGCUGG | -2.53 ± 0.22 | -4.07 ± 0.35
18 | UAAUAGCAAUAUUACGAGGU | -2.65 ± 0.26 | -3.06 ± 0.2
19 | AUAUAGCAAUAUUACGGUCG | -1.26 ± 0.17 | -1.44 ± 0.13
20 | GCCGAGCAAUAUUACGGUGC | -2.48 ± 0.29 | -2.75 ± 0.24
21 | CAGCAGCAAUAUUACGCACG | -0.264 ± 0.1 | -0.667 ± 0.09
22 | ACCAAGCAAUAUUACGCGCA | -0.106 ± 0.07 | -0.525 ± 0.054

Row | Sequence | self-splicing fitness (ln) (37 °C) | self-splicing fitness (ln) (30 °C)
23 | CACUAGCAAUAUUACGCGGU | -3.62 ± 0.28 | -4.59 ± 0.26
24 | GCGAAGCAAUAUUACGUCAC | -2.82 ± 0.3 | 
25 | GACCAGCAAUAUUACGCUCU | 0.0283 ± 0.089 | -0.6 ± 0.061
26 | GAAUAGCAAUAUUACGCCAG | -1.69 ± 0.3 | -2.58 ± 0.24
27 | UGCCAGCAAUAUUACGCACU | -0.315 ± 0.066 | -2.03 ± 0.069
28 | CGCUAGCAAUAUUACGCUUG | -3 ± 0.4 | -3.3 ± 0.27
29 | UGACAGCAAUAUUACGAUAA | 0.4 ± 0.072 | -0.561 ± 0.052
30 | UACGAGCAAUAUUACGAAUA | -2.87 ± 0.48 | -3.28 ± 0.47
31 | GUGGAGCAAUAUUACGAACU | -1.14 ± 0.42 | -0.836 ± 0.28
32 | UGGCAGCAAUAUUACGCCCU |  | -0.69 ± 0.27
33 | UUGCAGCAAUAUUACGACUC | -0.0756 ± 0.12 | -1.2 ± 0.11
34 | GGAAAGCAAUAUUACGCUAG | -0.857 ± 0.29 | -2.03 ± 0.22
35 | UAUAAGCAAUAUUACGAACA | -0.241 ± 0.21 | -0.73 ± 0.15
36 | GUUUAGCAAUAUUACGCGUG | -0.806 ± 0.082 | -1.1 ± 0.071
37 | UAGAAGCAAUAUUACGCUUG | -1.05 ± 0.12 | -2.11 ± 0.11
38 | UCAUAGCAAUAUUACGCAGG | -3.01 ± 0.17 | -3.24 ± 0.17
39 | GAGAAGCAAUAUUACGAGGG | -2.99 ± 0.19 | -3.49 ± 0.17
40 | AGGAAGCAAUAUUACGGCAU | -0.506 ± 0.15 | -1.28 ± 0.13
41 | GUCAAGCAAUAUUACGAUCU | -1.04 ± 0.068 | -2.31 ± 0.067
42 | AAGUAGCAAUAUUACGAAUA | -2.29 ± 0.23 | -3.24 ± 0.34
43 | GAGAAGCAAUAUUACGCAAG | -0.212 ± 0.21 | -1.6 ± 0.2
